Test results reported in article doi:10.1101/466904v1.

substrate: CC(=O)Oc1ccc2ccccc2c1; test: esterase activity assay; type: biochemical, Geobacillus stearothermophilus; details: 2-naphthyl acetate 1-20 mM in isopropanol, citrate phosphate buffer pH 7

Protein | Km | kcat
Axe2 (Geobacillus stearothermophilus) (protein) MKIGSGEKLLFIGDSITDCGRARPEGEGSFGALGTGYVAYVVGLLQAVYPELGIRVVNKGISGNTVRDLKARWEEDVIAQKPDWVSIMIGINDVWRQYDLPFMKEKHVYLDEYEATLRSLVLETKPLVKGIILMTPFYIEGNEQDPMRRTMDQYGRVVKQIAEETNSLFVDTQAAFNEVLKTLYPAALAWDRVHPSVAGHMILARAFLREIGFEWVRSR | 300 µM | 720 s⁻¹
Axe2 (Geobacillus stearothermophilus; R205A/W215A/Y184F) (protein) MKIGSGEKLLFIGDSITDCGRARPEGEGSFGALGTGYVAYVVGLLQAVYPELGIRVVNKGISGNTVRDLKARWEEDVIAQKPDWVSIMIGINDVWRQYDLPFMKEKHVYLDEYEATLRSLVLETKPLVKGIILMTPFYIEGNEQDPMRRTMDQYGRVVKQIAEETNSLFVDTQAAFNEVLKTLFPAALAWDRVHPSVAGHMILAAAFLREIGFEAVRSR | 6700 µM | 42 s⁻¹
Axe2 (Geobacillus stearothermophilus; Y184N) (protein) MKIGSGEKLLFIGDSITDCGRARPEGEGSFGALGTGYVAYVVGLLQAVYPELGIRVVNKGISGNTVRDLKARWEEDVIAQKPDWVSIMIGINDVWRQYDLPFMKEKHVYLDEYEATLRSLVLETKPLVKGIILMTPFYIEGNEQDPMRRTMDQYGRVVKQIAEETNSLFVDTQAAFNEVLKTLNPAALAWDRVHPSVAGHMILARAFLREIGFEWVRSR | 1300 µM | 8.0x10^0 sec-1
Axe2 (Geobacillus stearothermophilus; W190I) (protein) MKIGSGEKLLFIGDSITDCGRARPEGEGSFGALGTGYVAYVVGLLQAVYPELGIRVVNKGISGNTVRDLKARWEEDVIAQKPDWVSIMIGINDVWRQYDLPFMKEKHVYLDEYEATLRSLVLETKPLVKGIILMTPFYIEGNEQDPMRRTMDQYGRVVKQIAEETNSLFVDTQAAFNEVLKTLYPAALAIDRVHPSVAGHMILARAFLREIGFEWVRSR | 700 µM | 290 s⁻¹
Axe2 (Geobacillus stearothermophilus; R55A) (protein) MKIGSGEKLLFIGDSITDCGRARPEGEGSFGALGTGYVAYVVGLLQAVYPELGIAVVNKGISGNTVRDLKARWEEDVIAQKPDWVSIMIGINDVWRQYDLPFMKEKHVYLDEYEATLRSLVLETKPLVKGIILMTPFYIEGNEQDPMRRTMDQYGRVVKQIAEETNSLFVDTQAAFNEVLKTLYPAALAWDRVHPSVAGHMILARAFLREIGFEWVRSR | 600 µM | 1000 s⁻¹
Axe2 (Geobacillus stearothermophilus; R55E) (protein) MKIGSGEKLLFIGDSITDCGRARPEGEGSFGALGTGYVAYVVGLLQAVYPELGIEVVNKGISGNTVRDLKARWEEDVIAQKPDWVSIMIGINDVWRQYDLPFMKEKHVYLDEYEATLRSLVLETKPLVKGIILMTPFYIEGNEQDPMRRTMDQYGRVVKQIAEETNSLFVDTQAAFNEVLKTLYPAALAWDRVHPSVAGHMILARAFLREIGFEWVRSR | 500 µM | 1000 s⁻¹
Axe2 (Geobacillus stearothermophilus; Y184F) (protein) MKIGSGEKLLFIGDSITDCGRARPEGEGSFGALGTGYVAYVVGLLQAVYPELGIRVVNKGISGNTVRDLKARWEEDVIAQKPDWVSIMIGINDVWRQYDLPFMKEKHVYLDEYEATLRSLVLETKPLVKGIILMTPFYIEGNEQDPMRRTMDQYGRVVKQIAEETNSLFVDTQAAFNEVLKTLFPAALAWDRVHPSVAGHMILARAFLREIGFEWVRSR | 4600 µM | 36 s⁻¹
Axe2 (Geobacillus stearothermophilus; W190P/Y184F) (protein) MKIGSGEKLLFIGDSITDCGRARPEGEGSFGALGTGYVAYVVGLLQAVYPELGIRVVNKGISGNTVRDLKARWEEDVIAQKPDWVSIMIGINDVWRQYDLPFMKEKHVYLDEYEATLRSLVLETKPLVKGIILMTPFYIEGNEQDPMRRTMDQYGRVVKQIAEETNSLFVDTQAAFNEVLKTLFPAALAPDRVHPSVAGHMILARAFLREIGFEWVRSR | 3000 µM | 44 s⁻¹
